Measured values taken from patent US20150044209A1.
One block for each substance: values may come before it.

Experiments:
[1] = molecular target: human insulin (human) (UniProt P01308); experiment: SPR (Biacore 3000), multi-cycle, insulin titrated over amine-coupled Trap, steady-state affinity model, n=4; insulin titrated over immobilized Trap B; steady-state affinity model; n = 4
[2] = molecular target: human IGF-2 (human) (UniProt P01344); experiment: SPR, multi-cycle, Trap flowed over amine-coupled ligand, 1:1 kinetic model, n=4
Sequence of human IGF-2 (human) (P01344 25-91 limits assumed): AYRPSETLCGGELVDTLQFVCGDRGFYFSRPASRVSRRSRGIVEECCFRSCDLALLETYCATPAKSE

[3] = molecular target: mouse IGF-1 (mouse) (UniProt P05017); experiment: as above
Sequence of mouse IGF-1 (mouse) (P05017 49-118 limits assumed): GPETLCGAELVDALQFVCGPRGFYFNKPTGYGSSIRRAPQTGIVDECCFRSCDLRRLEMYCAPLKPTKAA

[4] = molecular target: human insulin (human) (UniProt P01308); experiment: SPR (Biacore 3000), multi-cycle, insulin titrated over amine-coupled Trap, steady-state affinity model, n=4
[5] = molecular target: ligand-immobilized surfaces (hIGF-I, mIGF-I and hIGF-II); experiment: SPR, multi-cycle, Trap flowed over ligand-immobilized surfaces; ligand not named

Sequence of human insulin (human) (P01308 25-54 limits assumed, chain 1 of 2): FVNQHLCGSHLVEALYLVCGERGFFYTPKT
Sequence of human insulin (human) (P01308 90-110 limits assumed, chain 2 of 2): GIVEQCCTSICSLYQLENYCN

Kd [1]: 10 µM
Substance: Trap B: His-tagged h-sIGF1R purified from 293 cells (from UniProt P08069 31-935) (receptor)

Kd [2]: 0.016 µM
Kd [3]: 0.01 µM
Kd [4]: 16 µM
Substance: Trap D: h-sIGF1R, purified from CHO cells by calcium hydroxyapatite (CHT) column followed by gel filtration (GF) (from UniProt P08069 31-935) (receptor)

koff [5]: 0.00043 s⁻¹
Substance: Trap F: h-sIGF1R-Fc, purified from CHO cells using protein A, pH 4.0 elution (Fc fusion)

koff [5]: 0.00015 s⁻¹
Substance: Trap G: h-sIGF1R-Fc, purified from CHO cells using protein A, pH 3.5 elution (Fc fusion)
